# Reference: patent US5831051, “Receptor for peptide hormones involved in energy homeostasis, and method and compositions for use thereof” (The Rockefeller University, dated 1998)
# Where no end group is shown, it is not given here.
# T1: recombinant human PACAP/VIP R-2 receptor (human)
# T1 chain: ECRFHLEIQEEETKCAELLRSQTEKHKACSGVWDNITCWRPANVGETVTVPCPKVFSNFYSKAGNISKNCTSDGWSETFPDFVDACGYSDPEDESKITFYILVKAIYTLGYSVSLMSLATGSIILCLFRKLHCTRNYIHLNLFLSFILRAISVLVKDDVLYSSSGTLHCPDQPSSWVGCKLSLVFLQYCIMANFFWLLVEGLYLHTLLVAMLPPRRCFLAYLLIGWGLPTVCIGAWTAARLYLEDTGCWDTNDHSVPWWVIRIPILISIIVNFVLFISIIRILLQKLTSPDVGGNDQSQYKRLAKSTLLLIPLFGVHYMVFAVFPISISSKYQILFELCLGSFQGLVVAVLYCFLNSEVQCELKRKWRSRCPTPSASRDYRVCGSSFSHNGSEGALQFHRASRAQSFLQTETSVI
# B1: vasoactive intestinal polypeptide (VIP) (ligand)
# peptide: HSDAVFTDNYTRLRKQMAVKKYLNSILN
# B2: PACAP-38 (pituitary adenylate cyclase activating polypeptide, 38-amino acid peptide) (ligand)
# peptide: HSDGIFTDSYSRYRKQMAVKKYLAAVLGKRYKQRVKNK
# modifications: ends and bridges not checked
# B3: glucagon-like peptide-I (GLP-1) (ligand)
# peptide: HAEGTFTSDVSSYLEGQAAKEFIAWLVKGR
# B4: glucagon-like peptide-II (GLP-II) (ligand)
# peptide: HADGSFSDEMNTILDNLAARDFINWLIQTKITD
# B5: PACAP-27 (pituitary adenylate cyclase activating polypeptide, 27-amino acid peptide) (ligand)
# peptide: HSDGIFTDSYSRYRKQMAVKKYLAAVL
# modifications: ends and bridges not checked
# Key:
# [1] = target: T1, recombinant human PACAP/VIP R-2 receptor; experiment: competitive displacement of 125I-VIP on intact CHL cells expressing the receptor
# Description for binding result: (§1) Each peptide concentration prepared in Hank's balanced salt solution containing 20 mM HEPES, pH 7.4, 0.5% BSA and 0.1 mM phenylmethylsulfonyl-fluoride (PMSF) was added in triplicates to intact cells. Following the incubation, the cells were washed two times with ice-cold PBS, lysed with 1N NaOH, and radioactivity measured in gamma counter.
# [2] = target: T1, recombinant human PACAP/VIP R-2 receptor; experiment: competitive displacement of 125I-VIP (44 pM) on intact CHL cells expressing the receptor; complete displacement not obtainable
# Description: as §1
# (§2) To further confirm the identity of the receptor, the cDNA was expressed in a chinese hamster lung (CHL) cell line.
# [3] = target: T1, recombinant human PACAP/VIP R-2 receptor; experiment: competitive displacement of 125I-PACAP-27 (44 pM) on intact CHL cells expressing the receptor
# Description: as §1
# [4] = target: T1, recombinant human PACAP/VIP R-2 receptor; experiment: competitive displacement of 125I-VIP (44 pM) on intact CHL cells expressing the receptor
# Description: as §1, §2
# [5] = target: T1, recombinant human PACAP/VIP R-2 receptor; experiment: competitive displacement of 125I-VIP on intact CHL cells expressing the receptor; complete displacement not obtainable
# Description: as §1
Molecule,IC50 [3] [nM],binding result [1],other results
secretin (ligand),,,concentration at which 125I-VIP binding was displaced [1]: 3.8 µM
B1,~9,,IC50 [2]: ~5.8 nM
B2,4.1,,IC50 [4]: 1.8 nM
B3,,no binding,
B4,,no binding,
B5,,,IC50 [5]: ~37 nM
